{"source": "patent US20230331821A1", "about": "(VIR BIOTECHNOLOGY, published 2023)", "key": {"[1]": {"molecular_target": "T1, SARS-CoV-2 Spike (S) protein, strain BetaCoV/Wuhan-Hu-1/2019, full length (SARS-CoV-2 Wuhan-Hu-1, UniProt P0DTC2 14-1273)", "experiment": "cell-based or functional assay"}, "[2]": {"molecular_target": "SARS-CoV-1 Spike (S) protein, strain SARS, on ExpiCHO cells (SARS-CoV (SARS-CoV-1), strain SARS, UniProt P59594 14-1255)", "experiment": "flow cytometry, ExpiCHO cells expressing SARS-CoV-1 S; % positive cells"}, "[3]": {"molecular_target": "T2, SARS-CoV-1 RBD (Sino Biological) (SARS-CoV-1, UniProt P59594 306-527)", "experiment": "ELISA, antigen coated on the plate, OD 405 nm"}, "[4]": {"molecular_target": "T2, SARS-CoV-1 RBD (Sino Biological)", "experiment": "ELISA, antigen coated on the plate, OD 405 nm", "remark": "listed apart in the source"}, "[5]": {"molecular_target": "T1, SARS-CoV-2 Spike (S) protein, strain …"}, "[6]": {"molecular_target": "His-tagged RBD of SARS-CoV-1 (SARS-CoV-1, UniProt P59594 306-527)"}, "[7]": {"molecular_target": "His-tagged RBD of SARS-CoV-2 (SARS-CoV-2 BetaCoV/Wuhan-Hu-1/2019, UniProt P0DTC2 331-550)"}, "[8]": {"molecular_target": "T1, SARS-CoV-2 Spike (S) protein, strain …", "experiment": "flow cytometry, ExpiCHO cells expressing SARS-CoV-2 S; % positive cells"}, "[9]": {"molecular_target": "T3, SARS-CoV-1 RBD (Sino Biological) (SARS-CoV-1, UniProt P59594 306-527)", "experiment": "BLI (Octet), antibody on protein A sensors, RBD in solution, global fit"}, "[10]": {"molecular_target": "T4, SARS-CoV-2 RBD (produced in house in Expi-CHO cells; residues 331-550 of spike) (SARS-CoV-2 BetaCoV/Wuhan-Hu-1/2019, UniProt P0DTC2 331-550)", "experiment": "BLI (Octet), antibody on protein A sensors, RBD in solution, global fit"}, "[11]": {"molecular_target": "T3, SARS-CoV-1 RBD (Sino Biological)", "experiment": "ELISA, antigen coated on the plate, OD 405 nm", "remark": "listed apart in the source"}, "[12]": {"molecular_target": "T4, SARS-CoV-2 RBD (produced in house in …)", "experiment": "ELISA, antigen coated on the plate, OD 405 nm"}, "[13]": {"molecular_target": "T3, SARS-CoV-1 RBD (Sino Biological)", "experiment": "ELISA, antigen coated on the plate, OD 405 nm", "remark": "listed apart in the source"}, "[14]": {"molecular_target": "T4, SARS-CoV-2 RBD (produced in house in …)", "experiment": "ELISA, antigen coated on the plate, OD 405 nm", "remark": "listed apart in the source"}, "[15]": {"molecular_target": "T4, SARS-CoV-2 RBD (produced in house in …)", "experiment": "ELISA, antigen coated on the plate, OD 405 nm", "remark": "listed apart in the source"}, "[16]": {"molecular_target": "T4, SARS-CoV-2 RBD (produced in house in …)", "experiment": "ELISA, antigen coated on the plate, OD 405 nm", "remark": "listed apart in the source"}, "[17]": {"molecular_target": "T4, SARS-CoV-2 RBD (produced in house in …)", "experiment": "ELISA, antigen coated on the plate, OD 405 nm", "remark": "listed apart in the source"}, "[18]": {"molecular_target": "T4, SARS-CoV-2 RBD (produced in house in …)", "experiment": "ELISA, antigen coated on the plate, OD 405 nm", "remark": "listed apart in the source"}}, "note": "Like-named read-outs stand apart in the source and are kept apart here."}
{"binder": "SARS-CoV-2 S306 mAb (B cell supernatant) (antibody, V domains shown) VH: QVQLVQSGAEVKKPGASVKVSCKASTYTFTSFGISWVRQAPGQGLEWMGWITTYSGDTNYAQKFQGRVTMTTDTSTNTAYMELRSLRSDDTAVYYCASDYFDSSGYYHSFDYWGQGTLVTVSS VL: EIVLTQSPDTLSLSPGERATLSCRASQSVSSYLAWYQQRPGQAPRLLIYDASKRATGIPARFSGSGSGTDFTLTISSLEPEDFAVYYCQQRSNWPPGCSFGQGTKVEIK", "values": [{"measurement": "Percent neutralization of infection, dilution 2", "setting": "[1]", "result": -19, "unit": "%"}, {"measurement": "Percent neutralization of infection, dilution 6", "setting": "[1]", "result": 15, "unit": "%"}, {"measurement": "Percent neutralization of infection, dilution 18", "setting": "[1]", "result": -9, "unit": "%"}, {"measurement": "Percent neutralization of infection, dilution 54", "setting": "[1]", "result": 6, "unit": "%"}]}
{"binder": "S306 (antibody, V domains shown) VH: QVQLVQSGAEVKKPGASVKVSCKASTYTFTSFGISWVRQAPGQGLEWMGWITTYSGDTNYAQKFQGRVTMTTDTSTNTAYMELRSLRSDDTAVYYCASDYFDSSGYYHSFDYWGQGTLVTVSS VL: EIVLTQSPDTLSLSPGERATLSCRASQSVSSYLAWYQQRPGQAPRLLIYDASKRATGIPARFSGSGSGTDFTLTISSLEPEDFAVYYCQQRSNWPPGCSFGQGTKVEIK", "values": [{"measurement": "EC50 (read off the curve)", "setting": "[2]", "result": "~0.02", "unit": "mg/L"}]}
{"binder": "S110 (antibody, V domains shown) VH: QVQLVESGGGLVQAGGSLRLSCAASGRTFSSAGMAWFRQAPGKEREFVATSNWNGGDTDYADSVKGRFTISRDNAKNTVYLQMNNLKPEDTAVYYCAAHLQKYGGDYYARIWGQGTQVTVS", "values": [{"measurement": "EC50 (read off the curve)", "setting": "[3]", "result": "~0.08", "unit": "mg/L"}, {"measurement": "EC50 (read off the curve)", "setting": "[4]", "result": "~0.08", "unit": "mg/L"}]}
{"binder": "S310 (antibody, V domains shown) VH: QVQLVQSGAELKKPGSSVKVSCKASGGTFNSYSFNWVRQAPGQGLEWLGGIIPVLGTSNYAQKFQGRVAVTADEFTTTAYMELSSLRSEDTAVYYCATRTYDSSGYRPYYYGLDVWGQGTPVTVSS VL: QSALTQPASVSGSPGQSITISCTGTSSDVGSYNLVSWYQQRPGKAPELMIYEVTKRPSGLSNRFSGSKSGNTASLTISGLQAEDEADYYCCSYAGSDTVIFGGGTKVTVL", "values": [{"measurement": "EC50 (read off the curve)", "setting": "[2]", "result": "~0.2", "unit": "mg/L"}]}
{"binder": "SARS-CoV-2 S303 mAb (B cell supernatant) (antibody, V domains shown) VH: EVQLVESGGGLVKPGGSLRLSCAASGFTFLTYSMNWVRQTPGKRLQWVSAISGSGGATYYADSVKGRFTISRDNSKNTLYLQMNTVTADDTAIYFCARERDDIFPMGLNAFDIWGQGAMVIVSS VL: DIQMTQSPSTLSASVGDRVTITCRASQSISNWLAWYQQKPGKAPKLLIYKASSLESGVPSRFSGSGSGTEFTLTISSLQPDDSATYYCQQYDTYSWTFGQGTKVEIK", "values": [{"measurement": "Percent neutralization of infection, dilution 2", "setting": "[1]", "result": 6, "unit": "%"}, {"measurement": "Percent neutralization of infection, dilution 6", "setting": "[1]", "result": 5, "unit": "%"}, {"measurement": "Percent neutralization of infection, dilution 18", "setting": "[1]", "result": 2, "unit": "%"}, {"measurement": "Percent neutralization of infection, dilution 54", "setting": "[1]", "result": 12, "unit": "%"}]}
{"binder": "S303 rIgG1 (antibody, V domains shown) VH: EVQLVESGGGLVKPGGSLRLSCAASGFTFLTYSMNWVRQTPGKRLQWVSAISGSGGATYYADSVKGRFTISRDNSKNTLYLQMNTVTADDTAIYFCARERDDIFPMGLNAFDIWGQGAMVIVSS VL: DIQMTQSPSTLSASVGDRVTITCRASQSISNWLAWYQQKPGKAPKLLIYKASSLESGVPSRFSGSGSGTEFTLTISSLQPDDSATYYCQQYDTYSWTFGQGTKVEIK", "values": [{"measurement": "EC50", "setting": "[5]", "result": 0.383, "unit": "mg/L"}, {"measurement": "Kd", "setting": "[6]", "result": "< 0.001", "unit": "nM"}, {"measurement": "Kd", "setting": "[7]", "result": 23.6, "unit": "nM"}, {"measurement": "EC50 (read off the curve)", "setting": "[8]", "result": "~0.4", "unit": "mg/L"}, {"measurement": "EC50 (read off the curve)", "setting": "[2]", "result": "~0.001", "unit": "mg/L"}, {"measurement": "Kd", "setting": "[9]", "result": "< 0.001", "unit": "nM"}, {"measurement": "Kd", "setting": "[10]", "result": 23.6, "unit": "nM"}]}
{"binder": "S303-rIgG1-LS (antibody, V domains shown) VH: EVQLVESGGGLVKPGGSLRLSCAASGFTFLTYSMNWVRQTPGKRLQWVSAISGSGGATYYADSVKGRFTISRDNSKNTLYLQMNTVTADDTAIYFCARERDDIFPMGLNAFDIWGQGAMVIVSS VL: DIQMTQSPSTLSASVGDRVTITCRASQSISNWLAWYQQKPGKAPKLLIYKASSLESGVPSRFSGSGSGTEFTLTISSLQPDDSATYYCQQYDTYSWTFGQGTKVEIK", "values": [{"measurement": "EC50 (read off the curve)", "setting": "[11]", "result": "~0.03", "unit": "mg/L"}, {"measurement": "EC50 (read off the curve)", "setting": "[12]", "result": "~0.09", "unit": "mg/L"}, {"measurement": "EC50 (read off the curve)", "setting": "[13]", "result": "~0.03", "unit": "mg/L"}, {"measurement": "EC50 (read off the curve)", "setting": "[14]", "result": "~0.09", "unit": "mg/L"}]}
{"binder": "S315 rIgG1-MLNS (antibody, V domains shown) VH: EVQLVESGGGLVQPGGSLRLSCAASGFTFSNYWMTWVRQAPGKGLEWVANIKQDGSEKYYVDSVKGRFTISRDNAKNSLYLQMNSLRAEDTAVYYCARDLWWNDQAHYYGMDVWGQGTTVTVSS VL: SYELTQPPSVSVSPGQTARITCSGDAFPNQYAYWYQQKPGQAPVMLIYKDSERPSGIPERFFGSSSGTTVTLTIRGVQAEDEADYYCQSADSSGTVFGGGTKLTVL", "values": [{"measurement": "EC50 (read off the curve)", "setting": "[15]", "result": "~0.2", "unit": "mg/L"}, {"measurement": "EC50 (read off the curve)", "setting": "[16]", "result": "~0.2", "unit": "mg/L"}]}
{"binder": "SARS-CoV-2 S304 mAb (B cell supernatant) (antibody, V domains shown) VH: EVQLVESGGGLVQPGGSLRLSCAASGFTFSSYDMHWVRQTTGKGLEWVSTIGTAGDTYYPDSVKGRFTISREDAKNSLYLQMNSLRAGDTAVYYCARGDSSGYYYYFDYWGQGTLLTVSS VL: DIQMTQSPSSLSAAVGDRVTITCRASQSIGSYLNWYQQKPGKAPKLLIYAASSLQSGVPSRFSGSGSGTDFTLTISSLQPEDFAIYYCQQSYVSPTYTFGPGTKVDIK", "values": [{"measurement": "Percent neutralization of infection, dilution 2", "setting": "[1]", "result": -21, "unit": "%"}, {"measurement": "Percent neutralization of infection, dilution 6", "setting": "[1]", "result": 25, "unit": "%"}, {"measurement": "Percent neutralization of infection, dilution 18", "setting": "[1]", "result": -22, "unit": "%"}, {"measurement": "Percent neutralization of infection, dilution 54", "setting": "[1]", "result": 7, "unit": "%"}]}
{"binder": "S304-rIgG1-LS (antibody, V domains shown) VH: EVQLVESGGGLVQPGGSLRLSCAASGFTFSSYDMHWVRQTTGKGLEWVSTIGTAGDTYYPDSVKGRFTISREDAKNSLYLQMNSLRAGDTAVYYCARGDSSGYYYYFDYWGQGTLLTVSS VL: DIQMTQSPSSLSAAVGDRVTITCRASQSIGSYLNWYQQKPGKAPKLLIYAASSLQSGVPSRFSGSGSGTDFTLTISSLQPEDFAIYYCQQSYVSPTYTFGPGTKVDIK", "values": [{"measurement": "EC50 (read off the curve)", "setting": "[17]", "result": "~0.1", "unit": "mg/L"}, {"measurement": "EC50 (read off the curve)", "setting": "[18]", "result": "~0.1", "unit": "mg/L"}]}
{"binder": "SARS-CoV-2 S308 mAb (B cell supernatant) (antibody, V domains shown) VH: QVQLVESGGGVVQPGRSLRLSCAASRFTFSSYGMHWVRQAPGKGLEWVAVIWHDGNNKHYGDSVKGRVTISRDNSKNTLYLQMTSLRAEDTAVYYCARAVTTFKGSGRARMRGMDVWGQGTTVTVSS VL: DIQLTQSPSFLSASVGDRVTITCRASQGINTYLAWYQQKPGKAPKLLIYAASTLQSGVPSRFSGSGSGTEFTLTISSLQPEDFATYYCQHLDTYPFTFGPGTKVDIK", "values": [{"measurement": "Percent neutralization of infection, dilution 2", "setting": "[1]", "result": -46, "unit": "%"}, {"measurement": "Percent neutralization of infection, dilution 6", "setting": "[1]", "result": 19, "unit": "%"}, {"measurement": "Percent neutralization of infection, dilution 18", "setting": "[1]", "result": 32, "unit": "%"}, {"measurement": "Percent neutralization of infection, dilution 54", "setting": "[1]", "result": 16, "unit": "%"}]}
